These results are taken from patent publication US20240261333A1, “NOVEL TARGETS FOR ENHANCING ANTI-TUMOR IMMUNITY” (THE BROAD INSTITUTE, INC., priority 2021, published 2024).

In one test the target is RPL35 (UniProt P42766). The test is described as follows: co-IP, anti-FLAG, C-FLAG B3GNT2 cell lysate, mass spectrometry.
The next test concerns the target RPL3 (UniProt P39023). The description is as above.
In another test the target is RPL21 (UniProt P46778). Description: co-IP with mouse IgG control, mass spectrometry; lysate of N-FLAG B3GNT2 cells.
The target in the next test is AHNAK (UniProt Q09666). Described as above.
In the next test the target is HNRNPA1 (UniProt P09651). The description is as above.
For another test, the target named is SERPINB12 (UniProt Q96P63). The test is described as above.
For the next test, the target named is S100A8 (UniProt P05109). The description is as above.
The next test deals with TRIM21 (UniProt P19474). The test is described as above.
The target in the next test is RPL31 (UniProt P62899). Described as above.
The next test deals with FABP5 (UniProt Q01469). The description is as above.
For a further test, the target named is SSR1 (UniProt P43307). The description is as above.
The next test has as its target HBA1 (UniProt P69905). The test is described as above.
The next test concerns the target LTF (UniProt P02788). The test is described as above.
The target in a further test is ATXN2L (UniProt Q8WWM7). The description is as above.
The target in a further test is ACTR3 (UniProt P61158). Described as above.
A further test deals with UBA52 (UniProt P62987). Described as above.
A further test deals with HNRNPF (UniProt P52597). Described as above.
A further test concerns the target ACSL3 (human) (UniProt O95573). The test is described as follows: anti-FLAG co-IP from lysate of N-FLAG B3GNT2 cells, mass spectrometry.
For the next test, the target named is RRBP1 (human) (UniProt Q9P2E9). The test is described as above.
Another test concerns the target HSP90AB1 (human) (UniProt P08238). The test is described as above.
The next test addresses RPS6 (human) (UniProt P62753). Described as above.
The next test deals with FBXO6 (human) (UniProt Q9NRD1). Described as above.
The target of a further test is AIFM1 (human) (UniProt O95831). The test is described as above.
The target in a further test is PSMA5 (human) (UniProt P28066). The description is as above.
A further test has as its target LARP4 (human) (UniProt Q71RC2). The test is described as above.
In another test the target is STAU1 (human) (UniProt O95793). Described as above.
In a further test the target is TUBA1C (human) (UniProt Q9BQE3). The description is as above.
For the next test, the target named is KPNB1 (human) (UniProt Q14974). The description is as above.
Another test concerns the target EEF2 (human) (UniProt P13639). The description is as above.
The target of another test is ZRANB2 (human) (UniProt O95218). Described as above.
The target of the next test is LDHA (human) (UniProt P00338). The test is described as above.
A further test has as its target ERP29 (human) (UniProt P30040). The description is as above.
A further test concerns the target PSMB6 (human) (UniProt P28072). Described as above.
The target in another test is PSMC2 (human) (UniProt P35998). The test is described as above.
Another test has as its target PGAM5 (human) (UniProt Q96HS1). The description is as above.
The next test addresses RPL15 (human) (UniProt P61313). Described as above.
A further test concerns the target PXN (human) (UniProt P49023). The test is described as above.
Another test has as its target PSMB4 (human) (UniProt P28070). The test is described as above.

Sequence of SSR1 (P43307 19-286 limits assumed): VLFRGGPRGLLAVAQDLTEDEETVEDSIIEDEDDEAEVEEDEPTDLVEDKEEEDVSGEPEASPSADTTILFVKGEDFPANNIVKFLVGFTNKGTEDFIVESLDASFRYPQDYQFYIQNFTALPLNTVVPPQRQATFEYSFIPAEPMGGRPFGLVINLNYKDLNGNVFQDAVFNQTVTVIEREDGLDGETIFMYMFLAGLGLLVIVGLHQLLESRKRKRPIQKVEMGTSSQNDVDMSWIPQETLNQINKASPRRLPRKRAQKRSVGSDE
Sequence of PGAM5 (human) (Q96HS1 whole entry): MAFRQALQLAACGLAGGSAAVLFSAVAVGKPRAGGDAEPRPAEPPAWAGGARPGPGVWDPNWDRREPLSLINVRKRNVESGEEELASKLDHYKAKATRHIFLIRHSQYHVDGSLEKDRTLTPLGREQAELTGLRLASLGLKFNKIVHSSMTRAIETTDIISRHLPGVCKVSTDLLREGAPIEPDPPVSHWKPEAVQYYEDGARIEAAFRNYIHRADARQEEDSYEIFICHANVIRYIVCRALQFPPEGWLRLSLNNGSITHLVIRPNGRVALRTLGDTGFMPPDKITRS
Sequence of TRIM21 (P19474 whole entry): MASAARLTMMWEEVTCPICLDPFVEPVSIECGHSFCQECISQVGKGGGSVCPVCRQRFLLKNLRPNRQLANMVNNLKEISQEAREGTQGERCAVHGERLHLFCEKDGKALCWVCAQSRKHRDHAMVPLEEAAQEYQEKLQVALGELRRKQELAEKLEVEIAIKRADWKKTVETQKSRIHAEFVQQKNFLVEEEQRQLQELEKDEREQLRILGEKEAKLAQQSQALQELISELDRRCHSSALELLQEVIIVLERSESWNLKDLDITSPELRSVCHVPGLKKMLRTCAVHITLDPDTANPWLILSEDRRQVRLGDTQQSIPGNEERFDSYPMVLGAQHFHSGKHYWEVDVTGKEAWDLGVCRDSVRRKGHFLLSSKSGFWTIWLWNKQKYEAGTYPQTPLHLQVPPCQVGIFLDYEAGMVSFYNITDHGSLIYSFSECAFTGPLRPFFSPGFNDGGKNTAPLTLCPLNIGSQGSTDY
Sequence of S100A8 (P05109 whole entry): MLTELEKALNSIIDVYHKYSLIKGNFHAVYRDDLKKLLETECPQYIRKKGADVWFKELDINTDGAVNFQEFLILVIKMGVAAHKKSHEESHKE
Sequence of PSMB4 (human) (P28070 46-264 limits assumed): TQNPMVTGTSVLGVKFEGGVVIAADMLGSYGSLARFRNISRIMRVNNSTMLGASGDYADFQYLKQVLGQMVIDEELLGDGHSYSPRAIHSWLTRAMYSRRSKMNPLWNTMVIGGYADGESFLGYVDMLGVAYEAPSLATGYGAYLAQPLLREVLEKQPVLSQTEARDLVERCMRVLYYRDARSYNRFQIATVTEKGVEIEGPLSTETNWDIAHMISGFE
Sequence of FABP5 (Q01469 2-135 limits assumed): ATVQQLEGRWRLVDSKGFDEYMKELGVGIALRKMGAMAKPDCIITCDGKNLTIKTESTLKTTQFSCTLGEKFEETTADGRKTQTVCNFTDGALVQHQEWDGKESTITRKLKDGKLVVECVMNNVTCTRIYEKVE
Sequence of FBXO6 (human) (Q9NRD1 whole entry): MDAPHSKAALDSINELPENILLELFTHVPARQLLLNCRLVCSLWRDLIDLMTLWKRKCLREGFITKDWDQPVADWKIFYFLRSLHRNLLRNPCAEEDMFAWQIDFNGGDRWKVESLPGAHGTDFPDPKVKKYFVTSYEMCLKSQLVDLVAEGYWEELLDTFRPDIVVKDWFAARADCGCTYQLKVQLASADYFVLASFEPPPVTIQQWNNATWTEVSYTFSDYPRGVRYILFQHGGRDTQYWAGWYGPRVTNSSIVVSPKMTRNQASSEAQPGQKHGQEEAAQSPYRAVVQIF
Sequence of HNRNPF (P52597 2-415 limits assumed): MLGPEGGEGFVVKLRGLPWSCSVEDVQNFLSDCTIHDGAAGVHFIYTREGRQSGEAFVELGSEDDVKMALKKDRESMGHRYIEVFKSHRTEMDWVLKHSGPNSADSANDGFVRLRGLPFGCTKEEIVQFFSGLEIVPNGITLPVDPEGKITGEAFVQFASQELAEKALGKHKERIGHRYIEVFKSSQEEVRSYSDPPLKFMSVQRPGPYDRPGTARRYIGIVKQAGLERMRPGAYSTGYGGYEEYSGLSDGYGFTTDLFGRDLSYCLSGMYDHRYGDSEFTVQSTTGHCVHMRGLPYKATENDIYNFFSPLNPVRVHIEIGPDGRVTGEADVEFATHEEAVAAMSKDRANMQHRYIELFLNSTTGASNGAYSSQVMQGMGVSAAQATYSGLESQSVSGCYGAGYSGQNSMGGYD
Sequence of RRBP1 (human) (Q9P2E9 whole entry): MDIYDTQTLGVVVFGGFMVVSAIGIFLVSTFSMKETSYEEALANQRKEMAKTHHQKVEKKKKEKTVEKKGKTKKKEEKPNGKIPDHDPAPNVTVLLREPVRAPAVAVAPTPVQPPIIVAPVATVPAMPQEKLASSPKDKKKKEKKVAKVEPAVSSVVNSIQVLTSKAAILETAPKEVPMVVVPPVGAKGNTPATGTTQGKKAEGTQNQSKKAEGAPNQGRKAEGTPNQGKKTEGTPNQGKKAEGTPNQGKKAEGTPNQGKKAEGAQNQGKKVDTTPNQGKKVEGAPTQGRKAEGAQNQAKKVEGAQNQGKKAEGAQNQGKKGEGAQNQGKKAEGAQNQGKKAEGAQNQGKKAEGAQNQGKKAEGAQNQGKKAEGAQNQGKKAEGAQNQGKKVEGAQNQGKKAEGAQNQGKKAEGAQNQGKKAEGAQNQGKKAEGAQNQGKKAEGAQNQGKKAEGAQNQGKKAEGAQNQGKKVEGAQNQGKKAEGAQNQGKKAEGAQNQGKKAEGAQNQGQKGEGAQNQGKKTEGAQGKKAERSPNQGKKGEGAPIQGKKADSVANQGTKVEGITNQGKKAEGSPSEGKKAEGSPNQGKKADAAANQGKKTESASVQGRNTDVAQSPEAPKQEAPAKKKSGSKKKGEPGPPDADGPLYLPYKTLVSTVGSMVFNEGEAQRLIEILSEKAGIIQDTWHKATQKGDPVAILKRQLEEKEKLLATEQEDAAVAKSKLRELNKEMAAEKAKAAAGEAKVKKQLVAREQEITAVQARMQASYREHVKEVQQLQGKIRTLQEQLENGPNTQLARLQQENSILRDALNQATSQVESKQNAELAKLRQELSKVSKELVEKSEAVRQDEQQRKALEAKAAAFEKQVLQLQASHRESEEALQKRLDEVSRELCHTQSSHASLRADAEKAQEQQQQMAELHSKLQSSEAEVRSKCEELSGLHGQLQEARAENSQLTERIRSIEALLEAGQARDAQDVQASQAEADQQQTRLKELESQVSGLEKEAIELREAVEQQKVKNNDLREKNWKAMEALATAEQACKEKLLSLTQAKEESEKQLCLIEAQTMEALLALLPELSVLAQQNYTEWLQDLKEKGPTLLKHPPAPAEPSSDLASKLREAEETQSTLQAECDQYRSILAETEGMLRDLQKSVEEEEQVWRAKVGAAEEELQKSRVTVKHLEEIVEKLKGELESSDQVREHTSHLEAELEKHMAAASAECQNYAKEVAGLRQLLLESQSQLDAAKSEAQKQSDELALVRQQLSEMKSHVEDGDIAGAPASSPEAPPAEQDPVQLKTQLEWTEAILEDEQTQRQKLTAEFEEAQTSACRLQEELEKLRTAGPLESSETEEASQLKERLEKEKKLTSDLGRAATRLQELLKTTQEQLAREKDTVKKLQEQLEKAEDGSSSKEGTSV
Sequence of ACSL3 (human) (O95573 whole entry): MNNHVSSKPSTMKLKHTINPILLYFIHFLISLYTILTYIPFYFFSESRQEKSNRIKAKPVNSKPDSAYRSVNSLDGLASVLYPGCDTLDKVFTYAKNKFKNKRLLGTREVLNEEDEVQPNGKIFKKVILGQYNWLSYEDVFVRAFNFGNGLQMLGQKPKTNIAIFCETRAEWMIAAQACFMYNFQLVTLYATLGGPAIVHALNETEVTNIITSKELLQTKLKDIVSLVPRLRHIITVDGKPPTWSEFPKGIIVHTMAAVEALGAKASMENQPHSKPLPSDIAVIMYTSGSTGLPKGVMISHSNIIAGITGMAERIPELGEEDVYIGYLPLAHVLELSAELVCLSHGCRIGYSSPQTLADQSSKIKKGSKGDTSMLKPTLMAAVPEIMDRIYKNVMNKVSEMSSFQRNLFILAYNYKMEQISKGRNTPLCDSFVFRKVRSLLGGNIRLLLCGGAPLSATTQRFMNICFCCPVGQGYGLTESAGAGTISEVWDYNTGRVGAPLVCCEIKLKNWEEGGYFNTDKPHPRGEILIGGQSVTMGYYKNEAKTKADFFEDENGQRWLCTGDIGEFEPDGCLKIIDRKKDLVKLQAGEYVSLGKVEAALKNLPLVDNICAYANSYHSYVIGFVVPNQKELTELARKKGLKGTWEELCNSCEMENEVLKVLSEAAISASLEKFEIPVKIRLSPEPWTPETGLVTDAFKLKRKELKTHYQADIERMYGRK
Sequence of ZRANB2 (human) (O95218 other isoform, or with tags, fused parts or gaps limits assumed): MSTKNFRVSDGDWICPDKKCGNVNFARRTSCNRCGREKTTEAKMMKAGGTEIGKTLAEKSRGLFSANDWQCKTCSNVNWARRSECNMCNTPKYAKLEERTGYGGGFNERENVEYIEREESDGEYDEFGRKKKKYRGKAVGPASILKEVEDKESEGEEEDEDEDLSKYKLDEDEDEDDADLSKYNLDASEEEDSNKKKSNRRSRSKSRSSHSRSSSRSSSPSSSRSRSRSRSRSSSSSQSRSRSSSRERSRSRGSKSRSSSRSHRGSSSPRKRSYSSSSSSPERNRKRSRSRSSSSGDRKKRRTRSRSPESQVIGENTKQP

Take “C-terminal FLAG tagged B3GNT2 (from UniProt Q9NY97 1-397) (enzyme)”: the co-IP mass spectrometry count turned out to be 5 in the test with RPL35 and 25 with RPL3.

For the substance “IgG control (Millipore Sigma 12-371) (antibody)”, the co-IP mass spectrometry count with RPL21 is 5; with AHNAK, 0; in the test with HNRNPA1 it was 4; with SERPINB12, 0; with S100A8, 4; in the test with TRIM21, 0. Moreover, the co-IP mass spectrometry count with RPL31 stood at 0; in the test with FABP5 it was 2; in the test with SSR1, 0; with HBA1, 3; in the test with LTF, 6; in the test with ATXN2L it was 3. The co-IP mass spectrometry count amounted to 3 with ACTR3, 5 with UBA52 and 0 with HNRNPF.

With “N-terminal FLAG tagged B3GNT2 (from UniProt Q9NY97 1-397) (enzyme)”, the co-IP mass spectrometry count with ACSL3 (human) amounted to 5; in the test with RRBP1 (human) it was 2; with HSP90AB1 (human), 10; with RPS6 (human), 11; with FBXO6 (human), 4; in the test with AIFM1 (human), 5. Further, the co-IP mass spectrometry count with PSMA5 (human) was 2; in the test with LARP4 (human), 0; in the test with STAU1 (human), 2; with TUBA1C (human) it was 76; with KPNB1 (human), 3; with EEF2 (human), 3. Moreover, the co-IP mass spectrometry count with ZRANB2 (human) was determined as 5; in the test with LDHA (human), 5; with ERP29 (human) it was 2; in the test with PSMB6 (human) it was 5; in the test with PSMC2 (human) it was 2; in the test with PGAM5 (human), 4. Besides, the co-IP mass spectrometry count with RPL15 (human) is 6; with PXN (human), 2; with PSMB4 (human), 2.
